The values that follow come from US20250026842A1 (JIANGSU HENGRUI PHARMACEUTICALS, published 2025).

Broadly, the EC50 is the concentration at which the effect is half-maximal. Low readings indicate higher potency in that assay, high ones lower potency in that assay.

Where two headings read alike, the source gives them in different places.

Test [1] deals with T1, human 4-1BB on the surface of HEK293-Hu4-1BB cells (human, UniProt Q07011 24-255). Briefly: cell-based or functional assay.
Test [2] deals with T1, human 4-1BB on the surface of …. Briefly: FACS on HEK293 cells highly expressing human 4-1BB. From the text: (§1) HEK293-Hu4-1BB cells were obtained by transient transfection of HEK293 cells (ATCC CRL-1573) with a gene expressing human 4-1BB protein or polypeptide (CD137 cDNA ORF Clone, Human, C-OFPSpark tag; purchased from Sino Biological, Cat #HG10041-ACR). The cell culture medium was DMEM (Gibco, Cat #11995065) containing 10% fetal bovine serum. The experimental medium was sterile PBS (phosphate-buffered saline, pH 7.40) containing 2% fetal bovine serum. HEK293-Hu4-1BB cells were washed with the experimental medium twice and seeded into a 96-well U-bottom plate at 1×10⁵ HEK293-Hu4-1BB cells per well. Different concentrations of the anti-4-1BB single-domain antibody VHH-Fc samples to be tested were added. The cells were incubated at 4° C. for 1 h and then washed with the experimental medium twice. Then the goat anti-human IgG (H+L) Alexa Fluor 488 antibody (Thermo, Cat #A11013) was added. After two washes, fluorescence signal values were measured using a flow cytometer. Urelumab was used as a positive control.
A comparison of the antigen-binding activity of C5_V2 and C5_V2-YTI was made using a FACS assay as described in Example 5.

For test [3] the target is unchanged. Briefly: cell-based or functional assay. This is another data set of the same source.
For test [4] the target is unchanged. Briefly: FACS on HEK293 cells highly expressing human 4-1BB.
From the text: as §1
The antigen-binding activity of the humanized antibodies was measured using a FACS assay as described in Example 2.
The source holds these as a separate data set.

T1 sequence (Q07011 24-255): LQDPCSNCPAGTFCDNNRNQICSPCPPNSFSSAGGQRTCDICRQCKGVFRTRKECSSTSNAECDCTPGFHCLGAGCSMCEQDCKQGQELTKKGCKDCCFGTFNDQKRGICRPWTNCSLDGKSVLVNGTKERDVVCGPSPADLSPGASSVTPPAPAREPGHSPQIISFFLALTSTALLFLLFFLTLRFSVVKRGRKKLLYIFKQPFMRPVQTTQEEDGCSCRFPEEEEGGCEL

B1: Urelumab (antibody, V domains shown)
VH: QVQLQQWGAGLLKPSETLSLTCAVYGGSFSGYYWSWIRQSPEKGLEWIGEINHGGYVTYNPSLESRVTISVDTSKNQFSLKLSSVTAADTAVYYCARDYGPGNYDWYFDLWGRGTLVTVSS
VL: EIVLTQSPATLSLSPGERATLSCRASQSVSSYLAWYQQKPGQAPRLLIYDASNRATGIPARFSGSGSGTDFTLTISSLEPEDFAVYYCQQRSNWPPALTFGGGTKVEIK
Regarding B1, in test [1], the “Factor of variation in Emax, FcγRIIb-mediated activation of HEK293-4-1BB cells” value turned out to be 2.61 fold and the “Factor of variation in Emax, activation of HEK293-4-1BB cells” value was determined as 1.7 fold. In test [2], this molecule came in with an EC50 of 1.64 nM and a Maximal fluorescence value of 39700. For the same molecule, in test [3], the “EC50, 4-1BB/NF-κB luciferase reporter, FcγRIIb cross-linking” value was determined as 0.027 nM; the “EC50, 4-1BB/NF-κB luciferase reporter, no FcγRIIb cross-linking” value worked out at 2.19 nM; the “Emax, 4-1BB/NF-κB luciferase reporter, FcγRIIb cross-linking” value is 9.39 relative to antibody-free group; the “Emax, 4-1BB/NF-κB luciferase reporter, no FcγRIIb cross-linking” value was 4.3 relative to antibody-free group. Also, in test [4], the EC50 was found to be 1.18 nM and the Maximal fluorescence value was 1000.
